Measured values taken from the supplement of paper PMC10065799, “High-throughput profiling of sequence recognition by tyrosine kinases and SH2 domains using bacterial peptide display” (eLife, 2023).

biological target: MERTK (UniProt Q12866); assay: phosphorylation enrichment, bacterial display (enrichment ratio); higher = better substrate or ligand; peptides without Tyr show the background
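Wherever SH2 binding enrichment of the phosphorylated peptide, bacterial display is given: peptide library displayed on the E. coli surface as eCPX fusions, selected cells deep-sequenced, score is each peptide's frequency after selection divided by its frequency in the input.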
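Wherever phosphorylation enrichment, bacterial display is given: 11-residue human phosphosite peptides and single-mutation variants displayed on the E. coli surface, counted by deep sequencing, each peptide's frequency after selection divided by its frequency in the unselected input library; frequency after pTyr selection over input frequency; kinase dosed for 20-30% of maximal phosphorylation in three min.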

Chain of MERTK (Q12866 whole entry, looked up, the tested form may be a part): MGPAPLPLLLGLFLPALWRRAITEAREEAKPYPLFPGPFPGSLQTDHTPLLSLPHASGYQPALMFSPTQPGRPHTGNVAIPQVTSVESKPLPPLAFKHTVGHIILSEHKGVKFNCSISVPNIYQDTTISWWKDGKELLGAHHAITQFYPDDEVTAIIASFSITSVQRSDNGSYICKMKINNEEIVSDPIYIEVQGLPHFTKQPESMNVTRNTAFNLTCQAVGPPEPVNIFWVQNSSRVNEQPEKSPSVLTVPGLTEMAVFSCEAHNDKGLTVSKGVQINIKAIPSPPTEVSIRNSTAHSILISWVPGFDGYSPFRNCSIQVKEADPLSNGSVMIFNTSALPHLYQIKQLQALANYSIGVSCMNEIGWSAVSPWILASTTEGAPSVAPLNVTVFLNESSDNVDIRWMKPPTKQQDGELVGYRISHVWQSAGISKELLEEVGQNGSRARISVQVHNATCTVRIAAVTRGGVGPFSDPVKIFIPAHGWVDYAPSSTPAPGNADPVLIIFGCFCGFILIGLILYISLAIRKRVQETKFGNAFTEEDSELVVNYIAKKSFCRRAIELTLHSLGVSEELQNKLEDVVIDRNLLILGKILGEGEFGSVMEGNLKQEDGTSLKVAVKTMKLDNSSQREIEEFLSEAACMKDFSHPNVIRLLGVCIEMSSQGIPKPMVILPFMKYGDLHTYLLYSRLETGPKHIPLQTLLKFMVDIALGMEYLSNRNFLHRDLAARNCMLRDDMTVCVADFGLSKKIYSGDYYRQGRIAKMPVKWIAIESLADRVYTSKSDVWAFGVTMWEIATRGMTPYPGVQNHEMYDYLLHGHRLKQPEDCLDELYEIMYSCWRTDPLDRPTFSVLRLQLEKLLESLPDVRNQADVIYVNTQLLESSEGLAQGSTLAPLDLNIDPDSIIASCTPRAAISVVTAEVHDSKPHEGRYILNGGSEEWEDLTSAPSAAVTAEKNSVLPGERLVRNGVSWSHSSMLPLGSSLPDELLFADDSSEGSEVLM

| Sequence | phosphorylation enrichment |
| --- | --- |
| KYVVVYFREID [IL17RB_Y447] | 0.471 |
| ADLVQYFMEHH [PTPN11_Y80_E76D_YF] | 0.394 |
| RIRRRYCQVLN [IQCF1_Y144] | 0.609 |
| DEDYLCREELA [POR_Y575_Y575C] | 0.676 |
| NIRKKYYRAIL [CHD7_Y1217_Q1214R] | 0.507 |
| KQRKEYMHRWQ [IQGAP2_Y710_R714W] | 0.519 |
| SEKIVYGHVDD [ACO2_Y71_L74V] | 0.383 |
| FVPSNYVAEDR [FRK_Y104_I100V_YF] | 0.38 |
| GISDEYHVIWH [GCDH_Y398_R402W] | 0.391 |
| QFQEKYKQMEQ [HCN4_Y531_V534M_YF] | 0.554 |
| KDLPNYNWNSF [KISS1_Y112] | 0.491 |
| IVRSLYEDQED [VHL_Y185_L188Q] | 0.482 |
| DPEAAYTTRGG [EPHA3_Y779] | 0.374 |
| CENCHYPIVPL [LCK_Y25] | 0.479 |
| EFQLPYFNTVP [BMPR1A_Y457_M460T_YF] | 0.454 |
| DLTQDSEEWKR [ORC6_Y232_Y232S] | 0.489 |

biological target: EPHB2 (UniProt P29323); assay: as above
Sequence (P29323 whole entry, looked up): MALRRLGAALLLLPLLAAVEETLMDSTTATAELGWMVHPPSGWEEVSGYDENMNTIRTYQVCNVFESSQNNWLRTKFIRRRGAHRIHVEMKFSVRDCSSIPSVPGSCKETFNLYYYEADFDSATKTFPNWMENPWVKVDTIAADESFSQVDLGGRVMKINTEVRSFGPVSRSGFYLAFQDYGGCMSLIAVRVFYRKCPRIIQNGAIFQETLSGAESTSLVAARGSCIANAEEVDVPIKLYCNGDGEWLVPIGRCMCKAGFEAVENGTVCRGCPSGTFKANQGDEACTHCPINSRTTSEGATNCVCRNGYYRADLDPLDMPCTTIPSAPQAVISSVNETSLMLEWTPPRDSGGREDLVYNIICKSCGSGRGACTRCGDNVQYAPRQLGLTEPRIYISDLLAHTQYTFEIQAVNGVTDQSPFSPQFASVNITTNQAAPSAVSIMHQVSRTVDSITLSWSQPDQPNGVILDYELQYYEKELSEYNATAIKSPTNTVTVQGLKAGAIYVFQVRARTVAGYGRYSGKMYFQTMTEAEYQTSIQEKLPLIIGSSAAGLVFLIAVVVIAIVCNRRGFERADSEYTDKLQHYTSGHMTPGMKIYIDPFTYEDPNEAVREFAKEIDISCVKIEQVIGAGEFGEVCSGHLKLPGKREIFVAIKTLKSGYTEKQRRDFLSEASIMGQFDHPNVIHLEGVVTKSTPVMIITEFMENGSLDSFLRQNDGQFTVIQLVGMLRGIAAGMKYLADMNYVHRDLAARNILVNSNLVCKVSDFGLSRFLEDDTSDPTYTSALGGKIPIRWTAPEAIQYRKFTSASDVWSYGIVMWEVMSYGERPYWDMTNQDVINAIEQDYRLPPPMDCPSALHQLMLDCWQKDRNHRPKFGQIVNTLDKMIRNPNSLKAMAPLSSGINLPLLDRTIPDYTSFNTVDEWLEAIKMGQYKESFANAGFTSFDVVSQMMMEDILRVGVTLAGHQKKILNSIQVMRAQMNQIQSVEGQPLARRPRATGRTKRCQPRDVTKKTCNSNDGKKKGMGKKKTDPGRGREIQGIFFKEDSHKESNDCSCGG

| Sequence | phosphorylation enrichment |
| --- | --- |
| KYVVVYFREID [IL17RB_Y447] | 0.545 |
| ADLVQYFMEHH [PTPN11_Y80_E76D_YF] | 0.545 |
| RIRRRYCQVLN [IQCF1_Y144] | 0.592 |
| DEDYLCREELA [POR_Y575_Y575C] | 0.725 |
| NIRKKYYRAIL [CHD7_Y1217_Q1214R] | 0.311 |
| KQRKEYMHRWQ [IQGAP2_Y710_R714W] | 0.746 |
| SEKIVYGHVDD [ACO2_Y71_L74V] | 0.469 |
| FVPSNYVAEDR [FRK_Y104_I100V_YF] | 0.625 |
| GISDEYHVIWH [GCDH_Y398_R402W] | 1.1 |
| QFQEKYKQMEQ [HCN4_Y531_V534M_YF] | 0.576 |
| KDLPNYNWNSF [KISS1_Y112] | 0.63 |
| IVRSLYEDQED [VHL_Y185_L188Q] | 0.621 |
| DPEAAYTTRGG [EPHA3_Y779] | 0.385 |
| CENCHYPIVPL [LCK_Y25] | 0.485 |
| EFQLPYFNTVP [BMPR1A_Y457_M460T_YF] | 0.549 |
| DLTQDSEEWKR [ORC6_Y232_Y232S] | 0.576 |

tested on: AncSZ; assay: as above

| Sequence | phosphorylation enrichment |
| --- | --- |
| KYVVVYFREID [IL17RB_Y447] | 1.61 |
| ADLVQYFMEHH [PTPN11_Y80_E76D_YF] | 1.1 |
| RIRRRYCQVLN [IQCF1_Y144] | 0.673 |
| DEDYLCREELA [POR_Y575_Y575C] | 1.68 |
| NIRKKYYRAIL [CHD7_Y1217_Q1214R] | 0.569 |
| KQRKEYMHRWQ [IQGAP2_Y710_R714W] | 0.846 |
| SEKIVYGHVDD [ACO2_Y71_L74V] | 0.715 |
| FVPSNYVAEDR [FRK_Y104_I100V_YF] | 0.782 |
| GISDEYHVIWH [GCDH_Y398_R402W] | 2.07 |
| QFQEKYKQMEQ [HCN4_Y531_V534M_YF] | 1.24 |
| KDLPNYNWNSF [KISS1_Y112] | 0.904 |
| IVRSLYEDQED [VHL_Y185_L188Q] | 1.39 |
| DPEAAYTTRGG [EPHA3_Y779] | 0.629 |
| CENCHYPIVPL [LCK_Y25] | 0.698 |
| EFQLPYFNTVP [BMPR1A_Y457_M460T_YF] | 0.879 |
| DLTQDSEEWKR [ORC6_Y232_Y232S] | 1.02 |

biological target: Fes (UniProt P07332); assay: as above
Sequence (P07332 whole entry, looked up): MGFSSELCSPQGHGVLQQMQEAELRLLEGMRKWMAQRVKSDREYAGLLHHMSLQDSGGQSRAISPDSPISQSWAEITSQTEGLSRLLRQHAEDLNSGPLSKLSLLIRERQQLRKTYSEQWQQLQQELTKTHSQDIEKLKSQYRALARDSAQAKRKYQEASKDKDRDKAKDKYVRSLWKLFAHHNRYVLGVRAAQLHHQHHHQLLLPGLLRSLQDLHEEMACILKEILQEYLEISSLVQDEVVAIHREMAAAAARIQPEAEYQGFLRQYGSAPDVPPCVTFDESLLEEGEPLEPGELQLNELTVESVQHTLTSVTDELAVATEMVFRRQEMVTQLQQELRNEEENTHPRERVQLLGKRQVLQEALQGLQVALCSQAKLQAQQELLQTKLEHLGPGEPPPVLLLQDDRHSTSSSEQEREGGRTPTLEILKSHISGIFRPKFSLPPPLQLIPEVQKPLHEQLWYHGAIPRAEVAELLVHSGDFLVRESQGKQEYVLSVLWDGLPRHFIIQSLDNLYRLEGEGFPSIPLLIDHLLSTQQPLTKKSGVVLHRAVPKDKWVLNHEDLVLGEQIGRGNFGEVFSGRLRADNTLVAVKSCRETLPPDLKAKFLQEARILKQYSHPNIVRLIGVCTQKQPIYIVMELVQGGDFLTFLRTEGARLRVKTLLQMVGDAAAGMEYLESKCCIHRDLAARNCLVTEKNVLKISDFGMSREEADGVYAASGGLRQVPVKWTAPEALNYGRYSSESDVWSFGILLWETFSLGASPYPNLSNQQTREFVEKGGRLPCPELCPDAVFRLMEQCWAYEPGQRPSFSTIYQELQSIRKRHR

| Sequence | phosphorylation enrichment |
| --- | --- |
| KYVVVYFREID [IL17RB_Y447] | 1.66 |
| ADLVQYFMEHH [PTPN11_Y80_E76D_YF] | 1.06 |
| RIRRRYCQVLN [IQCF1_Y144] | 1.11 |
| DEDYLCREELA [POR_Y575_Y575C] | 1.54 |
| NIRKKYYRAIL [CHD7_Y1217_Q1214R] | 0.547 |
| KQRKEYMHRWQ [IQGAP2_Y710_R714W] | 1.02 |
| SEKIVYGHVDD [ACO2_Y71_L74V] | 0.805 |
| FVPSNYVAEDR [FRK_Y104_I100V_YF] | 0.827 |
| GISDEYHVIWH [GCDH_Y398_R402W] | 1.17 |
| QFQEKYKQMEQ [HCN4_Y531_V534M_YF] | 1.87 |
| KDLPNYNWNSF [KISS1_Y112] | 0.855 |
| IVRSLYEDQED [VHL_Y185_L188Q] | 1.36 |
| DPEAAYTTRGG [EPHA3_Y779] | 0.717 |
| CENCHYPIVPL [LCK_Y25] | 0.749 |
| EFQLPYFNTVP [BMPR1A_Y457_M460T_YF] | 0.935 |
| DLTQDSEEWKR [ORC6_Y232_Y232S] | 1.09 |

tested on: c-Abl (mouse); assay: as above

| Sequence | phosphorylation enrichment |
| --- | --- |
| KYVVVYFREID [IL17RB_Y447] | 1.01 |
| ADLVQYFMEHH [PTPN11_Y80_E76D_YF] | 0.8 |
| RIRRRYCQVLN [IQCF1_Y144] | 0.455 |
| DEDYLCREELA [POR_Y575_Y575C] | 0.737 |
| NIRKKYYRAIL [CHD7_Y1217_Q1214R] | 0.462 |
| KQRKEYMHRWQ [IQGAP2_Y710_R714W] | 1.05 |
| SEKIVYGHVDD [ACO2_Y71_L74V] | 0.677 |
| FVPSNYVAEDR [FRK_Y104_I100V_YF] | 0.625 |
| GISDEYHVIWH [GCDH_Y398_R402W] | 0.818 |
| QFQEKYKQMEQ [HCN4_Y531_V534M_YF] | 0.976 |
| KDLPNYNWNSF [KISS1_Y112] | 0.639 |
| IVRSLYEDQED [VHL_Y185_L188Q] | 0.826 |
| DPEAAYTTRGG [EPHA3_Y779] | 0.559 |
| CENCHYPIVPL [LCK_Y25] | 0.567 |
| EFQLPYFNTVP [BMPR1A_Y457_M460T_YF] | 0.615 |
| DLTQDSEEWKR [ORC6_Y232_Y232S] | 0.676 |

biological target: SHP2-C SH2; assay: SH2 binding enrichment of the phosphorylated peptide, bacterial display (enrichment ratio); higher = better substrate or ligand; peptides without Tyr show the background

| Sequence | SH2 binding enrichment |
| --- | --- |
| KYVVVYFREID [IL17RB_Y447] | 2.88 |
| ADLVQYFMEHH [PTPN11_Y80_E76D_YF] | 0.961 |
| RIRRRYCQVLN [IQCF1_Y144] | 0.438 |
| DEDYLCREELA [POR_Y575_Y575C] | 0.917 |
| NIRKKYYRAIL [CHD7_Y1217_Q1214R] | 0.426 |
| KQRKEYMHRWQ [IQGAP2_Y710_R714W] | 2.21 |
| SEKIVYGHVDD [ACO2_Y71_L74V] | 1.59 |
| FVPSNYVAEDR [FRK_Y104_I100V_YF] | 0.76 |
| GISDEYHVIWH [GCDH_Y398_R402W] | 0.521 |
| QFQEKYKQMEQ [HCN4_Y531_V534M_YF] | 0.956 |
| KDLPNYNWNSF [KISS1_Y112] | 0.441 |
| IVRSLYEDQED [VHL_Y185_L188Q] | 0.993 |
| DPEAAYTTRGG [EPHA3_Y779] | 0.588 |
| CENCHYPIVPL [LCK_Y25] | 0.58 |
| EFQLPYFNTVP [BMPR1A_Y457_M460T_YF] | 0.741 |
| DLTQDSEEWKR [ORC6_Y232_Y232S] | 0.823 |

biological target: c-Src SH2; assay: as above

| Sequence | SH2 binding enrichment |
| --- | --- |
| KYVVVYFREID [IL17RB_Y447] | 1.37 |
| ADLVQYFMEHH [PTPN11_Y80_E76D_YF] | 0.612 |
| RIRRRYCQVLN [IQCF1_Y144] | 0.482 |
| DEDYLCREELA [POR_Y575_Y575C] | 0.444 |
| NIRKKYYRAIL [CHD7_Y1217_Q1214R] | 0.368 |
| KQRKEYMHRWQ [IQGAP2_Y710_R714W] | 2.02 |
| SEKIVYGHVDD [ACO2_Y71_L74V] | 0.556 |
| FVPSNYVAEDR [FRK_Y104_I100V_YF] | 0.588 |
| GISDEYHVIWH [GCDH_Y398_R402W] | 0.568 |
| QFQEKYKQMEQ [HCN4_Y531_V534M_YF] | 0.472 |
| KDLPNYNWNSF [KISS1_Y112] | 0.459 |
| IVRSLYEDQED [VHL_Y185_L188Q] | 1.09 |
| DPEAAYTTRGG [EPHA3_Y779] | 0.357 |
| CENCHYPIVPL [LCK_Y25] | 0.841 |
| EFQLPYFNTVP [BMPR1A_Y457_M460T_YF] | 0.667 |
| DLTQDSEEWKR [ORC6_Y232_Y232S] | 0.588 |

biological target: Grb2 SH2 (UniProt P62993); assay: as above
Sequence (P62993 whole entry, looked up): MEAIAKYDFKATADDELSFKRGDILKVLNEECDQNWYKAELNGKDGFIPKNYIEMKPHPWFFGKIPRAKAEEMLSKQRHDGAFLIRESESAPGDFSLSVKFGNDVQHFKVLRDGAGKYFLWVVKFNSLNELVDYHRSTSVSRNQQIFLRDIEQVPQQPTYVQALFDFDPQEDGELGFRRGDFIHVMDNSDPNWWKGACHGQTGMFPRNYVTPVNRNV

| Sequence | SH2 binding enrichment |
| --- | --- |
| KYVVVYFREID [IL17RB_Y447] | 1.62 |
| ADLVQYFMEHH [PTPN11_Y80_E76D_YF] | 0.902 |
| RIRRRYCQVLN [IQCF1_Y144] | 0.666 |
| DEDYLCREELA [POR_Y575_Y575C] | 0.948 |
| NIRKKYYRAIL [CHD7_Y1217_Q1214R] | 0.599 |
| KQRKEYMHRWQ [IQGAP2_Y710_R714W] | 2.29 |
| SEKIVYGHVDD [ACO2_Y71_L74V] | 0.903 |
| FVPSNYVAEDR [FRK_Y104_I100V_YF] | 0.788 |
| GISDEYHVIWH [GCDH_Y398_R402W] | 0.789 |
| QFQEKYKQMEQ [HCN4_Y531_V534M_YF] | 0.844 |
| KDLPNYNWNSF [KISS1_Y112] | 0.769 |
| IVRSLYEDQED [VHL_Y185_L188Q] | 0.985 |
| DPEAAYTTRGG [EPHA3_Y779] | 0.872 |
| CENCHYPIVPL [LCK_Y25] | 0.943 |
| EFQLPYFNTVP [BMPR1A_Y457_M460T_YF] | 1.27 |
| DLTQDSEEWKR [ORC6_Y232_Y232S] | 0.837 |
